# From patent publication US20140308316A1, “ANTIGEN PRESENTING CANCER VACCINE WITH GAMMA INTERFERON” (CALIFORNIA STEM CELL, INC., priority 2011, published 2014)
# B1: interferon-gamma (protein, UniProt P01579 24-161, looked up)
# Interferon gamma: QDPYVKEAENLKKYFNAGHSDVADNGTLFLGILKNWKEESDRKIMQSQIVSFYFKLFKNFKDDQSIQKSVETIKEDMNVKFFNSNKKKRDDFEKLTNYSVTDLNVQRKAIHELIQVMAELSPAAKTGKRKRSQMLFRG
# notes: interferon-gamma (InterMune), type II interferon, used at 1000 IU/mL for 72 hours on tumor cells
# Legend:
# [1] = tested on: SK-5-Mel cells; assay: Autophagy by flow cytometry with Enzo Cyto-ID Autophagy Detection Dye; type: cell-based; conditions: for effect on autophagy in IFN-gamma treated cells: z-VAD 20 uM with 1000 IU/mL IFN-gamma, 72 hours
# Description: FIGS. 6A and 6B reveal apoptosis and autophagy induced in response to interferon-gamma. SK-5-Mel cells were incubated with 1000 IU/mL of IFN-gamma for 72 hours after which non-adherent and adherent populations were collected and assayed for apoptosis and autophagy by flow cytometry using 7-AAD and Annexin-V (FIG. 6A). Enzo Cyto-ID Autophagy Detection Dye was used to measure autophagy by flow cytometry by measuring the mean intensity peak shift of dye provided by the manufacturer (FIG. […]). Fold changes in the peak shift in comparison to 5% FBS/RPMI are shown in FIG. 6C with serum-free as positive control for the induction of autophagy.
# SK-5-Mel cells were treated with 1000 IU/mL of IFN-gamma in the presence of 20 uM of the pan-caspase inhibitor z-VAD or its control compound, z-FA for 72 hours. The cells were harvested and assayed for autophagy by flow cytometry as in FIG. 6C.
# (§1) The methodology of the study was as follows. Autologous and model melanoma tumor cell lines were incubated with 1000 IU/mL of IFN-gamma for 72 hours prior to assaying for autophagy, apoptosis and MHC class II expression. Autophagy was detected by immunobloting with antibodies against LC3 II and by flow cytometry with Enzo's CytoID® Autophagy Detection Kit. Apoptosis and MHC class II induction were assayed by flow cytometry using 7-AAD and annexin-V staining and antibodies against MHC class II, respectively.
# (§2) The commercially available melanoma cell lines A375, SK-Mel-5 and SK-Mel-28 were purchased from American Type Culture Collection (Catalogue numbers: CRL-1619, HTB-70, and HTB-72). A375, SK-Mel-5, and SK-Mel-28 were maintained in 5% fetal bovine serum in RPMI-1640 (Invitrogen, catalogue number 11875-085). […]
# (§3) What was investigated was the induction of autophagy, apoptosis and MHC class II molecules after IFN-gamma treatment of melanoma tumor cells in vitro. […] Autophagy was detected by immunobloting with antibodies against LC3 II and by flow cytometry with Enzo's CytoID Autophagy Detection Kit. […]
# [2] = tested on: melanoma cell lines; assay: Apoptosis by flow cytometry using 7-AAD and annexin-V; type: cell-based; conditions: pan caspase inhibitor with IFN-gamma
# Description: as §1
# Analysis of tumor cell death and changes in major histocompatibility class II expression in response to IFN-gamma were conducted by use of antibodies directed against MHC class II, annexin-V and 7-amino-actinomycin D (7-AAD) and acquired on a Beckton-Dickenson FACS Calibur® flow cytometer.
# What was investigated was the induction of autophagy, apoptosis and MHC class II molecules after IFN-gamma treatment of melanoma tumor cells in vitro. Autologous and model melanoma tumor cell lines were incubated with 1000 IU/mL of IFN-gamma for 72 hours prior to assaying for autophagy, apoptosis and MHC class II expression. Autophagy was detected by immunobloting with antibodies against LC3 II and by flow cytometry with Enzo's CytoID Autophagy Detection Kit. […]
# [3] = tested on: MHC class I; assay: Flow cytometry for MHC class I on IFN-gamma treated autologous tumor cells; type: cell-based, human; conditions: 1000 IU/mL IFN-gamma 72 hours, N=65, p=2.8×10^−8
# Description: (§4) FIGS. 2A-D show characterization of IFN-gamma treated autologous tumor cells used for loading dendritic cells. Autologous melanoma tumor cells were treated with or without 1000 IU/mL IFN-gamma for 72 hours in 15% FBS/ECS in RPMI, harvested and irradiated with 100 Gy and cryopreserved. Cells were then thawed in AIMV and a sample taken for flow cytometry and for preparation of cell lysates for immunoblotting prior to antigen loading of DCs. An example of four separate autologous melanoma cell lines is shown (FIG. 2A, FIG. 2B and FIG. 2C). Induction major histocompatibility complexes by IFN-gamma treatment of autologous tumor cells (FIG. 2D). Tumor cells were harvested after being treated with or without 1000 IU/mL IFN-gamma for 72 hours and then assayed for MHC class I and class II. Control isotype antibodies were used to identify positive populations. Dark data points indicate median mean fluorescent plus/minus 95% confidence interval, N=65. […]
# [4] = tested on: MHC class II; assay: Flow cytometry for MHC class II on IFN-gamma treated autologous tumor cells; type: cell-based, human
# Description: as §4
# [5] = tested on: melanoma cell lines used in patient-specific dendritic cell therapy; assay: Immunohistochemistry of tumor associated antigens in melanoma lines with or without IFN-gamma; type: cell-based, human; conditions: 1000 IU/mL IFN-gamma, 72 hours, N=27 samples
# Description: Expression of a panel antigens by melanoma lines were determined using immunocytochemical procedure. Ceils were cultured in 8-chamber culture slides (Thermo Fisher, Rochester, N.Y.) in the presence or absence of 1000 IU/mL IFN-gamma. After 72 hours, the cells were washed 3 times with 1× Phosphate Buffered Saline (PBS) and fixed in cold acetone. After blocking endogenous peroxidase, cells were incubated with appropriate primary antibodies against the antigens listed. Immunohistochemistry was performed using biotinylated antimouse or rabbit immunoglobulins. Super Sensitive enzyme-conjugated streptavidin labeling and horse radish peroxidase chromogen, and substrate kits (Biogenex, San Ramon, Calif.). The reactivity of the following anti-human polyclonal or monoclonal antibodies was investigated with isotype matched control antibody: S-100 and HMB-45 (Biogenex, San Ramon, Calif.), Mel-2, Mel-5, Mart-1 (Signet, Dedham, Mass.), Tyrosinase and Mage-1 (Thermo Scientific, Fremont, Calif.), Melan-A, HLA-class I and HLA-class II (Dako Denmark).
# Table I: Change in the expression level of common tumor associated antigens in response to interferon-gamma in melanoma cell lines used patient-specific cell based dendritic cell therapy.
# [6] = tested on: autologous melanoma cell lines; assay: Immunoblot of lysates from melanoma cells incubated with or without IFN-gamma; type: cell-based, human; conditions: IFN-gamma treated vs untreated
# Description: FIGS. 2A-D show characterization of IFN-gamma treated autologous tumor cells used for loading dendritic cells. Autologous melanoma tumor cells were treated with or without 1000 IU/mL IFN-gamma for 72 hours in 15% FBS/ECS in RPMI, harvested and irradiated with 100 Gy and cryopreserved. Cells were then thawed in AIMV and a sample taken for flow cytometry and for preparation of cell lysates for immunoblotting prior to antigen loading of DCs. An example of four separate autologous melanoma cell lines is shown (FIG. 2A, FIG. 2B and FIG. 2C). Induction major histocompatibility complexes by IFN-gamma treatment of autologous tumor cells (FIG. 2D). Tumor cells were harvested after being treated with or without 1000 IU/mL IFN-gamma for 72 hours and then assayed for MHC class I and class II. Control isotype antibodies were used to identify positive populations. Dark data points indicate median mean fluorescent plus/minus 95% confidence interval, N=65.
# Cytoplasmic cell lysates were prepared with Mammalian Protein Extraction Reagent (Thermo Scientific, Rockford, Ill.) plus protease inhibitor cocktail (Roche, Indianapolis, Ind.) at 10,000 cells/uL on ice. Approximately 25 uLs/lane of cell lysates were separated on 12.5% tris-glycine gels, transferred to PVDF membrane and probed with antibodies against the following: calreticulin (MBL, Woburn, Mass.), Hsp-60, Hsp-70, Hsp-90 (R&D Systems, Minneapolis, Minn.), HMBG-1 (Cell Signaling, Danvers, Mass.), ICAM-1 (Santa Cruz Biotech, Santa Cruz, Calif.), Mel-4, Mart-1 (Signet, Emeryville, Calif.), tyrosinase (Upstate, Lake Placid, N.Y.) and GADPH (Calbiochem, Darmstadt, Germany).
# Lysates from cells that were incubated in the presence or absence of IFN-gamma were subjected to immunoblotting for a variety of molecules that may be important mediators of immunity (FIG. 1B). In the setting of melanoma cells treated with IFN-gamma, heat shock proteins appear to be differentially regulated but remain largely present in the cell preparations, especially in the case of hsp-70.
# [7] = tested on: melanoma tumor cells; assay: Sensitivity of IFN-gamma treated melanoma tumor cells to cytotoxic T lymphocyte activity; type: cell-based
# [8] = tested on: SK-5-Mel cells; assay: MHC class II (HLA-DR) expression by flow cytometry with autophagy inhibitor 3-MA; type: cell-based; conditions: 1000 IU/mL IFN-gamma 72 hours; 3-MA 10 uM where present
# Description: The cells were then harvested and assayed for apoptosis and MHC class II (HLA-DR) expression by flow cytometry.
# as §1, §2, §3
molecule,measurement,setting,value
carbobenzoxy-valyl-alanyl-aspartyl-[O-methyl]-fluoromethylketone [Z-VAD],effect on autophagy in IFN-gamma treated cells,[1],does not perturb autophagy
same,effect on autophagy in IFN-gamma treated cells,[1]; listed as z-VAD,did not affect
same,effect on apoptosis in IFN-gamma treated cells,[2],prevents apoptosis
B1,MHC class I median fold induction (95% C.I.),[3],2.91±1.13 fold
same,"MHC class II mean fluorescence intensity, median induction (95% C.I.)","[4]; 1000 IU/mL IFN-gamma 72 hours, N=65, p=0.039",4.23±2.66
same,cases with MHC class II induction greater than two fold,[4]; in response to IFN-gamma treatment,70%
same,Change after IFN-gamma treatment: None,[5]; HMB-45,54.5%
same,Change after IFN-gamma treatment: Down,[5]; MAGE-1,81.5%
same,Change after IFN-gamma treatment: None,[5]; MAGE-1,38.5%
same,Change after IFN-gamma treatment: Down,[5]; MART-1,85.2%
same,Change after IFN-gamma treatment: None,[5]; MART-1,14.8%
same,Change after IFN-gamma treatment: Down,[5]; Mel-2,53.8%
same,Change after IFN-gamma treatment: None,[5]; Mel-2,48.2%
same,Change after IFN-gamma treatment: Down,[5]; Mel-5,27.3%
same,Change after IFN-gamma treatment: None,[5]; Mel-5,72.7%
same,Change after IFN-gamma treatment: Down,[5]; Melan-A,70.8%
same,Change after IFN-gamma treatment: None,[5]; Melan-A,29.2%
same,Change after IFN-gamma treatment: Down,[5]; S-100,57.1%
same,Change after IFN-gamma treatment: None,[5]; S-100,42.9%
same,Change after IFN-gamma treatment: Down,[5]; Tyrosinase,80.0%
same,Change after IFN-gamma treatment: None,[5]; Tyrosinase,40.0%
same,ICAM-1 expression,[6],significantly up-regulated
same,calreticulin and high-mobility group box-1 protein expression,[6],up-regulated in some cases
same,"common melanoma antigens (mel-4, Mart-1 and tyrosinase) expression",[6],down regulated
same,sensitivity to cytotoxic T lymphocyte (CTL) activity,[7],more sensitive
same,MHC class II positive cells,[8],39.4%
same,"autophagy, fold change","[1]; 1000 IU/mL IFN-gamma 72 hours, z-VAD 20 uM where present, peak shift vs 5% FBS/RPMI",2.75±0.15 fold change
